From the supplement of paper PMC9170038

Tests used:
[1] = test system: MS2 coat protein; assay: apparent KD of MS2 coat protein, switch ON state; designed switch direction (-1 OFF switch, 1 ON switch): 1; higher = weaker reporter binding; details: FMN input: 0 or 200 uM; Eterna round: R93 (includes R88 designs)
How it was run: (§1)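 Illumina sequencing clusters served as templates for on-chip transcription of the designed RNA switches. SNAP-549-labelled MS2 coat protein was then titrated in twofold steps from 0.7 or 1.5 nM to 3 µM, allowing 0.8–1.5 h per step at first and 10–20 min per step later. The buffer held 100 mM Tris-HCl pH 7.5, 80 mM KCl and 4 mM MgCl2, without or with constant ligand. Apparent KD is the median per design of normalised cluster binding-curve fits.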

[2] = test system: MS2 coat protein; assay: apparent KD of MS2 coat protein, switch OFF state (with FMN for OFF switches, without FMN for ON switches); designed switch direction (-1 OFF switch, 1 ON switch): 1; higher = weaker reporter binding; details: FMN input: 0 or 200 uM; Eterna round: R93 (includes R88 designs)
How it was run: as §1

Sequence	apparent KD of MS2 coat protein [1] [µM]	apparent KD of MS2 coat protein [2] [µM]
AAAGAAGAAAGUCAGGAUAUGGAUGGGUAAACAUGAGGAUCACCCAUGUAUAAGAAAGAAAGAAACCAGAAGGGACAAAAGAAAA [Artaxerxes III]	0.0346	0.135
AAAGACACAGUGCAGGAUAUAGUAAUAGUCACAUGAGGAUCACCCAUGUUCUUUUAUAAGAACGAUUAGAAGGGCGGUGAAAAAA [SameState2 Malc#11]	0.161	0.383
AAAGACAUGGUGUAGGAUAUAUUAAUAGUCACAUGAGGAUCACCCAUGUUCAGAUAUCUGAACGAGUAGAAGGACGAUGAAAAAA [SameState2 Malc#4]	0.251	0.13
AAAUAAAGGACUGAGGAUAUACCACAUGAAACAUGAGGAUCACCCAUGUAGAAAUACAGAGGGUGGUAGAAGGCAGUCCACAAAC [Same State 2.5h ( so lets mod hyphema)]	0.0301	0.0572
AAAUAAAGGACUGAGGAUAUACCACAUGAAACAUGAGGAUCACCCAUGUUAAAAAACAGAGGGUGGUAGAAGGCAGUCCACAAAC [Same State 2.5e ( so lets mod hyphema)]	0.0179	0.0158
AAAUAGUGCCUGGAGGAUAUGUCGCAUGACACAUGAGGAUCACCCAUGUGGUAACACAGAGGGUGGCAGAAGGCUGGGUGCAAAC [Mod 4 of Pariah 6 (Round1) by Hyphema]	0.0274	0.26
AACAACAAUAUGAAGGAUAUCCACAACAAGACAUGAGGAUCACCCAUGUAAACUUAGAACAUACAGGAGAAGGUCAAGGGUGAAU [JR_SS002_Sub1204]	0.221	0.0632
AACAAUCUAUCUGAGGAUAUAUGUCGAAAGACAUGAGGAUCACCCAUGUGAAAACAUGAAAAAACAUAGAAGGCAGAUAGAUUGA [SS2: 1136]	0.0285	0.0543
AACAAUCUAUCUGAGGAUAUCAUGUCAAAGACAUGAGGAUCACCCAUGUAGCAGGAAACUGCUUAUGAGAAGGCAGAUAGAUUGA [SS2: 1114]	0.0694	0.45
AACAAUCUAUCUGAGGAUAUCAUGUCAAAGACAUGAGGAUCACCCAUGUGCAGGAAAACUGCUCAUGAGAAGGCAGAUAGAUUGA [SS2: 1110]	0.464	0.167
AACUAACAUGAGGAUCACCCAUGUAUUCAAACAUGAGGAUAUAUAACACAUCAUCGACGGAUAGAAGGCAUAAAUA [JR_SS001_Sub1206]	0.092	0.0866
AACUACAUUAUGAAGGAUAUCCACAUCAAGACAUGAGGAUCACCCAUGUAAACUUAGAACAUACAGGAGAAGGUCAAGGGUGAAU [JR_SS002_Sub1206]	0.234	0.0692
AAGAAAAAAAGGCAGGAUAUCCAAAAAAAAACAUGAGGAUCACCCAUGUAAAAAUAAAAAAAAUGGGAGAAGGGCCAAAAAAGAA [Mat - Same State 2 - Mod - 154]	0.0138	0.0221
AAGAAACAUGAGGAUCACCCAUGUAAGAAUAUGGGAGGAUAUGCGAAAAGAAACAAAGAAGCAGAAGGCCUAAGAA [75%, Ex5 sub 1, 5]	0.0266	0.0576
AAGAAACAUGAGGAUCACCCAUGUAGAAAUAUGGGAGGAUAUACAAGGACGUAAGUCAAGGUAGAAGGCCUAAGAA [Mat - Same State 1 - Meechl mod - D135]	0.026	0.097
AAGAAACAUGAGGAUCACCCAUGUGAGAAAAACACAGGAUAUGCAAAAGAAAGAAAGAAAGCAGAAGGGUGAAGAA [Mat - Same State 1 - Tesla mod - 52]	0.0225	0.074
AAUAAACAUGAGGAUCACCCAUGUUUUAAUAGUUGAGGAUAUAAGGGUGAAAAUAGCAUAUUAGAAGGCGAGUGUA [SameState1 Malc#14]	0.0327	0.0317
AAUAAUUAUACGAAGGAUAUCGGUAAUUAGACAUGAGGAUCACCCAUGUAAUAAGGUUAAAUAAACGAGAAGGUCGAGGGUGAAA [JR_SS002_Sub501]	0.0669	0.0415
AAUACACAUGGUCAGGAUAUCGCAGCUAGGACAUGAGGAUCACCCAUGUCGCACGUAACCGUAACCGAGAAGGGACAGGGUGACC [JR_SS002_Sub409]	0.0369	0.0152
AAUACACAUGGUCAGGAUAUCGCAGCUAGGACAUGAGGAUCACCCAUGUCGCACGUAACCGUAACCGAGAAGGGACAGGGUGAUC [JR_SS002_Sub410]	0.0218	0.034
AAUACACAUGGUCAGGAUAUCGCAGCUAGGACAUGAGGAUCACCCAUGUCGCAUGUAACUGUAACCGAGAAGGGACAGGGUGAUC [JR_SS002_Sub411]	0.123	0.0926
AAUAUACAUGAGGAUCACCCAUGUGAAAAUAUGGGAGGAUAUCGGAAAAAAAAAAAAAAACGAGAAGGCCCAAAAA [SS! 1 MT 13]	0.0208	0.119
AAUAUAUUAAGUGAGGAUAUCAAGAAAAAAACAUGAGGAUCACCCAUGUGGGAAACACGAUAGGGUGAGAAGGUACUUAAUAUAU [Samwise Clockwise 19 - Jieux - Same State 2]	0.0845	0.0425
ACUACACAUGAGGAUCACCCAUGUCAGGUGGGACUAGGAUAUUAUAAACCAGAGUAAUUAUAAGAAGGAGUAGAAA [JR_SS001_Sub307]	0.0326	0.0422
ACUUCACAUGAGGAUCACCCAUGUCAGGCCGGACUAGGAUAUUAUCAUGCAGCGUAACCAUAAGAAGGAGUAGGAA [JR_SS001_Sub314]	0.136	0.0573
AGAAAACAUGAGGAUCACCCAUGUAGAAAUAUGGGAGGAUAUACGAAGACGAAAGUCAAAGUAGAAGGCCUAAAGA [Mat - Same State 1 - Eli mod - D101]	0.0236	0.0776
AGAAAACAUGAGGAUCACCCAUGUUAGUGUCAUUAAGGAUAUAGGCUUAAGAAUCUGAGACUAGAAGGUGGUGCGC [Orbeus]	0.0219	0.0308
AGAAAUAAAACACAGGAUAUCCAAAAUAAAACAUGAGGAUCACCCAUGUAAAAUAAAAUAAAAUGGGAGAAGGGUGAAAAUAAAG [Mat - Same State 2 - JL mod - D10]	0.0253	0.0399
